Laboratory results taken from paper PMC5798305.

Biological target: naked mole-rat ASIC1b (naked mole-rat)

Substance: naked mole-rat ASIC3 (natural protein)
- pH EC50 of proton-gated currents, whole-cell patch clamp of CHO cells cotransfected with nmrASIC3 + nmrASIC1b: 5.58 pH
